Source: patent US20150307625A1 (Bayer, published 2015)

T1: dog Protein C (zymogen) (dog, UniProt Q28278 43-456)
T1 construct: mature; also called dog PC
T1 sequence (looked up): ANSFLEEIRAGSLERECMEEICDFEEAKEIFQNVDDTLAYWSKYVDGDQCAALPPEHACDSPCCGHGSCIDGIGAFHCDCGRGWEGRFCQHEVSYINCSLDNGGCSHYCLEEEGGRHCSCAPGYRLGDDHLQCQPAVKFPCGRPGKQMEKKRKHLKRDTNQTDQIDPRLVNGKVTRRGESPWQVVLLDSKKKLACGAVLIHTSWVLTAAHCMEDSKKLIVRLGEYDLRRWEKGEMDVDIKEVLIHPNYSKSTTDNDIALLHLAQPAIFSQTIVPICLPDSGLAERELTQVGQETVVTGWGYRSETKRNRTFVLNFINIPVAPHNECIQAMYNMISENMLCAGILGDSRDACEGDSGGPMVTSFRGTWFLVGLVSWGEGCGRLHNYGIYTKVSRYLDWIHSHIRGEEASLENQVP

T2: dog activated Protein C (dog, UniProt Q28278 43-456)
T2 construct: mature; also called dog aPC; dAPC
T2 sequence (looked up): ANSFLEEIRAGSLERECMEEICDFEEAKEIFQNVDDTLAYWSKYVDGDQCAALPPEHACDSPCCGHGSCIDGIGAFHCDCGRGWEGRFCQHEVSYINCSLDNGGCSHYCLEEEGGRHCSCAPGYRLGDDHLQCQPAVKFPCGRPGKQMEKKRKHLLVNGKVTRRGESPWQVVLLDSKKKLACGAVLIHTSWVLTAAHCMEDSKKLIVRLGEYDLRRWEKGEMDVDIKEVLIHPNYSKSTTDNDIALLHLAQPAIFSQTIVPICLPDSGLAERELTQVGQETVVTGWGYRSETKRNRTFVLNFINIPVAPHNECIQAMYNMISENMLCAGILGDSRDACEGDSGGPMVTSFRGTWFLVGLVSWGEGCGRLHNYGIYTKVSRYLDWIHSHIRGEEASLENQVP

T3: mouse Protein C (zymogen) (mouse, UniProt P33587 42-460)
T3 construct: mature; also called mouse PC
T3 sequence (looked up): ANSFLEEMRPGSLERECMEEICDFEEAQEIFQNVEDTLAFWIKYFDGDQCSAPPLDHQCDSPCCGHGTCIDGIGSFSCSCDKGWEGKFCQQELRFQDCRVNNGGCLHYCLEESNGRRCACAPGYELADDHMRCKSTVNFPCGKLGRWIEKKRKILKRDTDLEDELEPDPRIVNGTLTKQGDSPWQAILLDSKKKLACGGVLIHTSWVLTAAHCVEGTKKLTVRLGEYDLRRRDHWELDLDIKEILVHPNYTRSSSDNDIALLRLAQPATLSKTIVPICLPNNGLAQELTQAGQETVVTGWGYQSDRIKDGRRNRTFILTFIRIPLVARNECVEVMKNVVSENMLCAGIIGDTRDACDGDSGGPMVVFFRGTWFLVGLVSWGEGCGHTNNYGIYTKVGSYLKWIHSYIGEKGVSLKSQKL


Experiments:
[1] = target: rabbit activated Protein C (rabbit) (UniProt Q28661); assay: ELISA, hIgG1
dog Protein C (zymogen) [2] = target: T1, dog Protein C (zymogen); assay: direct ELISA, antigen coated
dog activated Protein C [3] = target: T2, dog activated Protein C; assay: direct ELISA, aPC coated, hIgG1
dog activated Protein C [4] = target: T2, dog activated Protein C; assay: cell-based or functional assay
dog activated Protein C [5] = target: T2, dog activated Protein C; assay: ELISA, hIgG1
[6] = target: rabbit activated Protein C (rabbit) (UniProt Q28661); assay: cell-based or functional assay
[7] = target: rabbit activated Protein C (rabbit) (UniProt Q28661); assay: direct ELISA, aPC coated, hIgG1
[8] = target: T4, human activated Protein C (human, UniProt P04070 43-461); assay: cell-based or functional assay
[9] = target: T5, human Protein C (zymogen) (human, UniProt P04070 43-461); assay: direct ELISA, antigen coated at 1 ug/ml, IgG at 20 nM, anti-human IgG-HRP, AmplexRed (RFU)
T5 construct: also called human PC; hPC

[10] = target: T4, human activated Protein C; assay: direct ELISA, aPC coated, hIgG1
[11] = target: T4, human activated Protein C; assay: cell-based or functional assay; remark: listed apart in the source
[12] = target: T4, human activated Protein C; assay: ELISA, hIgG1
[13] = target: T4, human activated Protein C; assay: cell-based or functional assay; remark: listed apart in the source
[14] = target: T4, human activated Protein C; assay: Biacore, Fab
dog activated Protein C [15] = target: T2, dog activated Protein C; assay: Biacore, Fab
[16] = target: T5, human Protein C (zymogen); assay: direct ELISA, antigen coated at 100 ng/well, Fab at 20 nM (1 ug/ml), anti-human Fab-HRP, AmplexRed (RFU)
Procedure: FIG. 3 depicts a graph characterizing anti-APC Fabs by direct ELISA. An ELISA plate was coated with human PC (hPC), human aPC (hAPC), dog aPC (dAPC), mouse aPC (mAPC) at 100 ng per well. Purified Fabs designate on the X-axis were added to the plate at 20 nM (1 ug/ml). Bound Fab was detected by the secondary antibody (anti-human Fab-HRP) followed by HRP substrate AmplexRed. The purified Fabs preferentially bind to human aPC and, with the exception of Fab R41C17, show little to no binding to human PC.
Antigens were coated directly on ELISA plates. Coating antigens included human PC (plasma-derived), human aPC (recombinant), dog aPC (plasma-derived), and mouse aPC (recombinant) at 100 ng/well in PBS/Ca buffer. After blocking the plate with 5% milk/PBS and washing the plate with PBS-Tween20, soluble Fabs (1 ug/ml, 20 nM) were added to the plate and incubated for 1 h at RT with shaking. Fab binding was detected with anti-human Fab (lambda) antibody-HRP and Amplex red as substrate. […] In contrast, R41C17 binds to both human APC and human PC. Also shown in FIG. 3 is cross-species reactivity of Fabs by ELISA.

[17] = target: T4, human activated Protein C; assay: direct ELISA, antigen coated, Fab
dog activated Protein C [18] = target: T2, dog activated Protein C; assay: direct ELISA, antigen coated, Fab
dog Protein C (zymogen) [19] = target: T1, dog Protein C (zymogen); assay: direct ELISA, dPC coated at 10 ug/ml, Fab at 20 nM, anti-human Fab-HRP, AmplexRed (RFU)
Procedure: (§1) To determine the binding selectivity of these fabs, their binding activities to the proenzyme human PC, to thrombin (FIIa), and to the activated Factor II (FIIa, thrombin), Factor VII (FVIIa), Factor IX (FIXa), and Factor X (FXa) were also assessed by ELISA. Briefly, an ELISA plate was coated with human aPC at 1 ug/ml, mouse PC at 10 ug/ml, dog PC at 10 ug/ml, other coagulation factors (FIIa, FVIIa, FIXa, FXa) at 5-10 ug/ml. Anti-aPC Fabs were added to the wells at 20 nM (1 ug/ml). Bound Fabs were detected by the secondary antibody (anti-human Fab-HRP) followed by HRP substrate AmplexRed.

[20] = target: T3, mouse Protein C (zymogen); assay: direct ELISA, mPC coated at 10 ug/ml, Fab at 20 nM, anti-human Fab-HRP, AmplexRed (RFU)
Procedure: as §1

Binder | EC50 [1] | binding result (dog Protein C (zymogen) [2]) | EC50 (dog activated Protein C [3]) | Anti-aPC IC50 (nM), Amidolytic activity (dog activated Protein C [4]) | EC50 (dog activated Protein C [5]) | Anti-aPC IC50 (nM), Amidolytic activity [6] | EC50 [7] | EC50 [10] | Anti-aPC IC50 (nM), Amidolytic activity [11] | EC50 [12] | also measured
C7A23 hIgG1 (antibody, V domains shown, also called C7A23-IgG) VH: EVQLLESGGGLVQPGGSLRLSCAASGFTFGNHWMTWVRQAPGKGLEWVSGVSWNGSRTHYADSVKGRFTISRDNSKNTLYLQMNSLRAEDTAVYYCALTGRSGWMRFPNWFDPWGQGTLVTVTS VL: QSVLTQPPSASGTPGQRVTISCSGSSSNIGNNYVSWYQQLPGTAPKLLIYRNNQRPSGVPDRFSGSKSGTSASLAISGLRSEDEADYYCQSYDSDLSGPYVLFGGGTKLTVLG | 7 nM | no binding | 10.9 nM | 49 nM | 10.9 nM | 25 nM | 7 nM |  |  |  | 
C7I7 hIgG1 (antibody, V domains shown, also called C717-IgG) VH: EVQLLESGGGLVQPGGSLRLSCAASGFTFGNHWMTWVRQAPGKGLEWVSGVSWNGSRTHYADSVKGRFTISRDNSKNTLYLQMNSLRAEDTAVYYCALTGRSGWMRFPNWFDPWGQGTLVTVTS VL: QSVLTQPPSASGTPGQRVTISCTGSSSNIGAGYDVHWYQQLPGTAPKLLIYGNSNRPSGVPDRFSGSKSGTSASLAISGLRSEDEAAYYCSSYVGSDLVVFGGGTKLTVLG | 2 nM | no binding | 2.3 nM | 147 nM | 2.3 nM | 29 nM | 2 nM | 2.66 nM | 64 nM | 2.7 nM | aPTT, inhibition of aPC activity at 1 ug/ml IgG (1:1 molar ratio) [8]: ~50%; binding result [9]: no binding (tested: 20 nM)
C22J13 hIgG1 (antibody, V domains shown) VH: EVQLLESGGGLVQPGGSLRLSCAASGFTFSSNYMSWVRQAPGKGLEWVAVISYDGSNKYYADSVKGRFTISRDNSKNTLYLQMNSLRAEDTAMYYCALTGRSGWMRFPNWFDPWGQGTLVTVTS VL: QSVLTQPPSASGTPGQRVTISCSGSDSNIGSNAVNWYQQLPGTAPKLLIYDNNKRPSGVPDRFSGSKSGTSASLAISGLRSEDEADYYCSSYTSSNTVVFGGGTKLTVLG | 0.6 nM |  |  |  |  | 24 nM | 0.6 nM | 0.49 nM | 27 nM | 0.5 nM | 
C25K23 IgG1 (antibody, V domains shown, the claims call them variable regions; also called C25K23 hIgG; C25K23 hIgG1) VH: EVQLLESGGGLVQPGGSLRLSCAASGFTFSSYWMSWVRQAPGKGLEWVSGVSWNGSRTHYADSVKGRFTISRDNSKNTLYLQMNSLRAEDTAVYYCALTGRSGWMRFPNWFDPWGQGTLVTVSS VL: QSVLTQPPSASGTPGQRVTISCTGSSSNIGAAYDVHWYQQLPGTAPKLLIYGNNKRPSGVPDRFSGSKSGTSASLAISGLRSEDEADYYCQSYDSSLSGSVFGGGTKLTVLG |  | no binding | 3.4 nM | 692 nM | 3.4 nM |  |  | 1.25 nM | 131 nM | 1.2 nM | binding result [9]: no binding (tested: 20 nM)
Variant 2312 (modified C25K23 IgG) (antibody, V domains shown) VH: EVQLLESGGGLVQPGGSLRLSCAASGFTFSSYWMSWVRQAPGKGLEWVSGVSWNGARTHYADSVKGRFTISRDNSKNTLYLQMNSLRAEDTAVYYCALTGRSGWMRFPNWFDPWGQGTLVTVSS VL: QSVLTQPPSVSGAPGQRVTISCTGSSSNIGAAYDVHWYQQLPGTAPKLLIYGNNKRPSGVPDRFSGSKSGTSASLAITGLQAEDEADYYCQSYDSSLSGSVFGGGTKLTVLG |  |  |  |  |  |  |  |  |  |  | IC50 (read off the curve), amidolytic activity of human aPC [b] [13]: ~10 nM
C7I7 Fab (Fab, V domains shown, Human Fab (lambda) from a phage library, expressed in E. coli; also called C717) VH: EVQLLESGGGLVQPGGSLRLSCAASGFTFGNHWMTWVRQAPGKGLEWVSGVSWNGSRTHYADSVKGRFTISRDNSKNTLYLQMNSLRAEDTAVYYCALTGRSGWMRFPNWFDPWGQGTLVTVTS VL: QSVLTQPPSASGTPGQRVTISCTGSSSNIGAGYDVHWYQQLPGTAPKLLIYGNSNRPSGVPDRFSGSKSGTSASLAISGLRSEDEAAYYCSSYVGSDLVVFGGGTKLTVLG |  |  |  |  |  |  |  |  |  |  | Kd [14]: 1.3 nM; Kd (dog activated Protein C [15]): 1.3 nM; binding result [16]: no binding (tested: 20 nM); EC50 [17]: 6.3 nM; EC50 (dog activated Protein C [18]): 3.9 nM; binding result (dog Protein C (zymogen) [19]): no binding (tested: 20 nM); binding result [20]: no binding (tested: 20 nM)
C25K23 Fab (Fab, V domains shown, Human Fab (lambda) from a phage library, expressed in E. coli; also called Fab C25K23) VH: EVQLLESGGGLVQPGGSLRLSCAASGFTFSSYWMSWVRQAPGKGLEWVSGVSWNGSRTHYADSVKGRFTISRDNSKNTLYLQMNSLRAEDTAVYYCALTGRSGWMRFPNWFDPWGQGTLVTVTS VL: QSVLTQPPSASGTPGQRVTISCTGSSSNIGAAYDVHWYQQLPGTAPKLLIYGNNKRPSGVPDRFSGSKSGTSASLAISGLRSEDEADYYCQSYDSSLSGSVFGGGTKLTVLG |  |  |  |  |  |  |  |  |  |  | Kd [14]: 2 nM; Kd (dog activated Protein C [15]): 5.2 nM; binding result [16]: no binding (tested: 20 nM); EC50 [17]: 4.3 nM; EC50 (dog activated Protein C [18]): 8.2 nM; binding result (dog Protein C (zymogen) [19]): no binding (tested: 20 nM); binding result [20]: no binding (tested: 20 nM)
